For one molecule, EC50 results are on record in patent US20190345207A1 (Pieris, published 2019).

This assay deals with T1, cynomolgus LAG-3 on CHO cells stably transfected with cyLAG-3 (CHO-cyLAG-3) (cynomolgus monkey).
T1 construct: whole, on cells; also called CHO::cynomolgus LAG-3
Put plainly: FACS on transfected CHO cells.

Description: To perform the experiment, LAG-3-positive and negative Flp-In CHO cells were incubated with lipocalin muteins, and bound mutein was labeled using fluorescently labeled anti-hTlc antibodies, and then the signal was detected using FACS analysis as described in this example.
5×10⁴ cells per well were pre-incubated for 1 h in ice-cold PBS containing 5% fetal calf serum (PBS-FCS). […] Cells were subsequently washed and analyzed using a intellicyt IQue Flow cytometer (Intellicyt). Fluorescent data generated by lipocalin mutein binding to LAG-3 expressing cells were analyzed by gating for LAG-3 expressing CHO cells and using Forecyt@ software and resulted geometric fluorescent mean were plotted and fitted using Graphpad software.

B1: benchmark anti-LAG-3 antibody (SEQ ID NOs: 5 and 6) (antibody, human IgG4 S228P, kappa, V domains shown)
VH: QVQLQQWGAGLLKPSETLSLTCAVYGGSFSDYYWNWIRQPPGKGLEWIGEINHRGSTNSNPSLKSRVTLSLDTSKNQFSLKLRSVTAADTAVYYCAFGYSDYEYNWFDPWGQGTLVTVSS
VL: EIVLTQSPATLSLSPGERATLSCRASQSISSYLAWYQQKPGQAPRLLIYDASNRATGIPARFSGSGSGTDFTLTISSLEPEDFAVYYCQQRSNWPLTFGQGTNLEIKR
notes: also called benchmark antibody
In the case of B1, it took 46.8 nM to reach a half-maximal effect (EC50).
